From patent publication CN112980851A

Target: CD20 (UniProt P11836)
Test: cell-based or functional assay

Sequence of UniProt P11836 (P11836 whole entry): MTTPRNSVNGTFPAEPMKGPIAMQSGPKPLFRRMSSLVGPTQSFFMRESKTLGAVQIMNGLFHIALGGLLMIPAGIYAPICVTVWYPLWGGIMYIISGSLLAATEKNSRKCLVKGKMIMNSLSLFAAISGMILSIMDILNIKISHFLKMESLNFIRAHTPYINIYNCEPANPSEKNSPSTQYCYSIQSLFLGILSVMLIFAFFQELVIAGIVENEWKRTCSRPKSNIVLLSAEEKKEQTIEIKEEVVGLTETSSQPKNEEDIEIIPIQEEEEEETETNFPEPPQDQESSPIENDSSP

ADCC on Raji cells with NK92MI-CD16a effector cells (LDH release), EC50(ng/mL): 0.607 ng/mL
CDC on Raji cells with human serum complement (LDH release), EC50(ng/mL): 210 ng/mL
Substance: Rituximab (antibody)
